One data set deals with RM6 (UniProt P03051). The data set is described as follows: SAXS; 10 °C, 1–12 mg/mL; molecular mass from I(0) of the Guinier plot against BSA; rRop from the refolding protocol.
The target in data set [1] is rRM6. The data set is described as above.
Data set [2] has as its target rRM6. The data set is described as follows: SEC; Sephacryl S-200 high-resolution column, 20 °C, 0.5 mL/min, after Ni-NTA; rRop from the refolding protocol gives an asymmetric peak. (In gel filtration, larger molecules generally elute earlier.)
In data set [3] the target is rRM6. Put plainly: SEC-MALS; 100 uL loaded (wtRop 3 mg/mL, rRop 5.5 mg/mL, rRM6 3.5 mg/mL) on Superdex 75 (wtRop, rRop) or Superdex 200 (rRM6); rRop from the non-refolding protocol.
For a further data set, the target named is rRop. The description is as above.
Data set [4] concerns the molecule itself. The description is as above.

Regarding “RM6 (from UniProt P03051 1-63) (natural protein)”, the stoichiometry N (usually the number of molecules, sites or subunits per partner or assembly) with RM6 stood at 4.

rRM6: the stoichiometry N with rRM6 [1], with rRM6 [2] and with rRM6 [3] was 4 each time. As for rRop, in the data set with rRop, the stoichiometry N was 2.

B1: Rop (natural protein)
chain: MTKQEKTALNMARFIRSQTLTLLEKLNELDADEQADICESLHDHADELYRSCLARFGDDGENL
notes: homodimeric 4-alpha-helical bundle; also called wtRop; wild-type Rop
For B1, in data set [4], the “stoichiometry N” value worked out at 2.

(Values after article PMC7920257, “Probing Protein Folding with Sequence-Reversed α-Helical Bundles” (International Journal of Molecular Sciences, 2021).)
